The record followed here is patent publication US20040185566A1, “Polypeptides toxic to nematodes and methods of use” (priority 2003, published 2004).

Values joined by “and” are separate entries in the source; they are usually repeats but may differ in a detail not shown here. Identical values can stand only once.

Data set [1] is described as follows: Native isoelectric focusing. It counts as physicochemical. As to conditions: polypeptide produced by S. marcescens NRRL B-23112. Here is the method: The isoelectric point (pI) of purified SMP#1 was determined using a vertical mini-gel system (Roberston et al. 1987) and 1.5 mm polyacrylamide gels consisting of 5% (w/v) 30:1 acrylamide/bisacrylamide, 10% (v/v) glycerol and 2% (w/v) pH 4-8 ampholytes. Electrode solutions were cooled to 4° C. prior to electrophoresis. The anode solution was 20 mM acetic acid and the cathode solution was 25 mM NaOH. Samples and protein standards (Sigma) were mixed with an equal volume of 50% (v/v) glycerol and 4%(w/v) ampholytes in the pH range of 4-8. Samples were prepared for isoelectric focusing by concentrating and desalting in a centriprep concentrator (Amicon) with a molecular mass exclusion limit of 10 000 Da. Electrophoresis was at 25° C. and 200 volts for 1.5 hours. The gels were fixed with 10% (w/v) trichloroacetic acid for 10 minutes with gentle agitation. Ampholytes were removed by shaking the gel for 2 hours in 1% (w/v) trichloroacetic acid. After rinsing with Milli-Q-water, the gels were stained with 0.25% (w/v) Coomassie blue R-250 in 45% (v/v) methanol and 10% (v/v) acetic acid for 10 minutes. The gels were destained in 45% (v/v) methanol and 10% (v/v) acetic acid until the background was clear.

Data set [2] deals with casein. Briefly: Proteolytic activity of SMP #1 (casein digestion), pH optimum and activity with detergents/solvents. The class given is biochemical. How it is done:
Proteolytic activity was determined by casein digestion (Kunitz 1947). Substrate consisting of 0.75 ml 1.0% (w/v) casein in 100 mM TRIS/HCL, 1 mM MgCl2 (pH 8) at 30° C. Protease samples (0.1 ml) were brought to 30° C., added to the substrate and incubated at 30° C. After 30 minutes, the reaction was quenched with 0.5ml 10% (w/v) trichloroacetic acid (TCA). After 15 minutes at 25° C., the quenched reaction mixture was centrifuged at 10 000 g for 10 minutes to pellet precipitated protein and the A280 of the supernatant was determined. One unit of proteolytic activity was defined as the amount of enzyme that produced an increase of absorbance at 280 nM of 0.1 under the conditions of the assay.
Several compounds were tested as to characterize the novel protein. Effect of protease inhibitors (30-120 μ/ml antipain dihydrochloride, 1-4 μ/ml aprotinin, 20-80 μg/ml bestatin, 25-50 μg/ml chymostatin, 5-20 μg/ml E-64, 10-60 mM EDTA, 1-74 μg/ml leupeptin, 500-2000 μg/ml Pefabloc SC, 1-4 μ/ml pepstatin, 165-660 μlg/ml phosphoramidon and 100-400 μg/ml PMSF), SDS (0.1%-1%), Tween-20 (0.1%-1%), Triton X-100 (0.1%-1%), ethanol (1%-5%), and 2-mercaptoethanol (0.1%-1%) were determined by addition to the standard reaction mixture. Residual proteolytic activity was determined after incubation at 25° C. for 30 minutes.

Data set [3] deals with R. similis. In words: Assay for lytic activity against R. similis (microtiter plates). It counts as in vivo. Here is the method:
The assays were performed in microtiter plates. Ten microliters of R. similissuspensions were placed in microtiter plate wells. Serially diluted SMP #1 (100U in 0.1 ml stock) was added to the wells. PBS was added to a series of wells containing R. similis as a control. The nematodes were stored at 20° C. and examined for lytic effects or death at 48 and 96 hours.

Data set [4] has as its system A. suum. In words: Assay for lytic activity against live A. suum. As to conditions: for 12 hours Death / 12 hours Lysis / 24 hours Death / 24 hours Lysis: protein conc. 0.1 mg/ml.

B1: SMP #1: serratia metalloprotease isolated from S. marcescens NRRL B-23112, amino acid sequence SEQ ID NO:2; selective nematolytic activity (protein, listed as Serratia marcescens)
chain: MQSTKKAIEITESSLAAATTGYDAVDDLLHYHERGNGIQINGKDSFSNEQAGLFITRENQTWNGYKVFGQPVKLTFSFPDYKFSSTNVAGDTGLSKFSAEQQQQAKLSLQSWADVANITFTEVAAGQKANITFGNYSQDRPGHYDYGTQAYAFLPNTIWQGQDLGGQTWYNVNQSNVKHPATEDYGRQTFTHEIGHALGLSHPGDYNAGEGNPTYNDVTYAEDTRQFSLMSYWSETNTGGDNGGHYAAAPLLDDIAAIQHLYGANLSTRTGDTVYGFNSNTGRDFLSTTSNSQKVIFAAWDAGGNDTFDFSGYTANQRINLNEKSFSDVGGLKGNVSIAAGVTIENAIGGSGNDVIVGNAANNVLKGGAGNDVLFGGGGADELWGGAGKDIFVFSAASDSAPGASDWIRDFQKGIDKIDLSFFNKEAQSSDFIHFVDHFSGTAGEALLSYNASSNVTDLSVNIGGHQAPDFLVKIVGQVDVATDFIVHSNGTPGAVSAGRDA
B1 came in with an Isoelectric point in data set [1] of 6.1. The “proteolytic activity retained in the presence of additive” value in data set [2] (2-mercaptoethanol (0.5% v/v)), in data set [2] (SDS (1% w/v)), in data set [2] (Triton X-100 (1% w/v)), in data set [2] (Tween-20 (1% w/v)) and in data set [2] (ethanol (5% v/v)) was “retains full activity” each time. In addition, in data set [2] (polypeptide produced by S. marcescens NRRL B-23112), the “Optimum pH” value is listed as 10. Also, the “Dead (nematodes counted)” value in data set [3] (10 U/well, 10 wells, 20° C.) is 298 and 300. The “% mortality” value in data set [3] (10 U/well, 10 wells, 20° C., significant difference (p < 0.05) between treatments) was 99% and 100%. Further, the “lysis / mortality of the nematode on contact” value in data set [3] (R. similis) and in data set [4] (A. suum) was “lyses the nematode” each time. Besides, the “time until cuticle and body wall are lysed and internal viscera expelled” value in data set [3] (R. similis) and in data set [4] (A. suum) was not above 30 h throughout. For the same molecule, the “12 hours Death” value in data set [4] (10 mM 2-mercaptoethanol) is on record as “(+)”. For the same molecule, the “12 hours Lysis” value in data set [4] (10 mM 2-mercaptoethanol) is given as “(+++)”. Also, the “24 hours Death” value in data set [4] (10 mM 2-mercaptoethanol) was “(+)”. Moreover, in data set [4] (10 mM 2-mercaptoethanol), the “24 hours Lysis” value is given as “(+++)”.

B2: papain (protein, UniProt P00784 134-345, looked up)
Papain: IPEYVDWRQKGAVTPVKNQGSCGSCWAFSAVVTIEGIIKIRTGNLNEYSEQELLDCDRRSYGCNGGYPWSALQLVAQYGIHYRNTYPYEGVQRYCRSREKGPYAAKTDGVRQVQPYNEGALLYSIANQPVSVVLEAAGKDFQLYRGGIFVGPCGNKVDHAVAAVGYGPNYILIKNSWGTGWGENGYIRIKRGTGNSYGVCGLYTSSFYPVKN
As for B2, in data set [4] (2-mercaptoethanol 0), the “12 hours Death” value is “(+)”, the “12 hours Lysis” value is “(+++)”, the “24 hours Death” value was “(+)” and the “24 hours Lysis” value is recorded as “(+++)”.
